First the molecules themselves.
B1: target 1 MT 5'PFS UUA 3'PFS CAA (mixed)
RNA 1: CACCCGUGCAAAAAUGCAGGGGUCUAAAACUGAGCGGAUAACCUCUCUAUGG
RNA 2: GGGAAUGGAUCCACAUCUACGAAUUCUUACCAUAGAGAGGUUAUCCGCUCACAAAGAUCGGAAGAGCACACGU
B2: target 1 MT 5'PFS UAA 3'PFS UUA (mixed)
RNA 1: CACCCGUGCAAAAAUGCAGGGGUCUAAAACUGAGCGGAUAACCUCUCUAUGG
RNA 2: GGGAAUGGAUCCACAUCUACGAAUUCUAACCAUAGAGAGGUUAUCCGCUCAUUAAGAUCGGAAGAGCACACGU
B3: target 1 MT 5'PFS GUU 3'PFS AGG (mixed)
RNA 1: CACCCGUGCAAAAAUGCAGGGGUCUAAAACUGAGCGGAUAACCUCUCUAUGG
RNA 2: GGGAAUGGAUCCACAUCUACGAAUUCGUUCCAUAGAGAGGUUAUCCGCUCAAGGAGAUCGGAAGAGCACACGU
B4: target 1 insG 3' of 9,insU 3' of 9 (mixed)
RNA 1: CACCCGUGCAAAAAUGCAGGGGUCUAAAACUGAGCGGAUAACCUCUCUAUGG
RNA 2: GGGAAUGGAUCCACAUCUACGAAUUCGUACCAUAGAGAGGUUAGUUCCGCUCACCGAGAUCGGAAGAGCACACGU
B5: target 1 MT 5'PFS UAA 3'PFS UUU (mixed)
RNA 1: CACCCGUGCAAAAAUGCAGGGGUCUAAAACUGAGCGGAUAACCUCUCUAUGG
RNA 2: GGGAAUGGAUCCACAUCUACGAAUUCUAACCAUAGAGAGGUUAUCCGCUCAUUUAGAUCGGAAGAGCACACGU
B6: target 1 MT 5'PFS UAA 3'PFS UUG (mixed)
RNA 1: CACCCGUGCAAAAAUGCAGGGGUCUAAAACUGAGCGGAUAACCUCUCUAUGG
RNA 2: GGGAAUGGAUCCACAUCUACGAAUUCUAACCAUAGAGAGGUUAUCCGCUCAUUGAGAUCGGAAGAGCACACGU
B7: target 1 MT 5'PFS CCG 3'PFS AAA (mixed)
RNA 1: CACCCGUGCAAAAAUGCAGGGGUCUAAAACUGAGCGGAUAACCUCUCUAUGG
RNA 2: GGGAAUGGAUCCACAUCUACGAAUUCCCGCCAUAGAGAGGUUAUCCGCUCAAAAAGAUCGGAAGAGCACACGU
B8: target 1 MT 5'PFS UGU 3'PFS UAA (mixed)
RNA 1: CACCCGUGCAAAAAUGCAGGGGUCUAAAACUGAGCGGAUAACCUCUCUAUGG
RNA 2: GGGAAUGGAUCCACAUCUACGAAUUCUGUCCAUAGAGAGGUUAUCCGCUCAUAAAGAUCGGAAGAGCACACGU
B9: target 1 MT 5'PFS CUG 3'PFS ACC (mixed)
RNA 1: CACCCGUGCAAAAAUGCAGGGGUCUAAAACUGAGCGGAUAACCUCUCUAUGG
RNA 2: GGGAAUGGAUCCACAUCUACGAAUUCCUGCCAUAGAGAGGUUAUCCGCUCAACCAGAUCGGAAGAGCACACGU
B10: target 1 MT 5'PFS GUU 3'PFS AGA (mixed)
RNA 1: CACCCGUGCAAAAAUGCAGGGGUCUAAAACUGAGCGGAUAACCUCUCUAUGG
RNA 2: GGGAAUGGAUCCACAUCUACGAAUUCGUUCCAUAGAGAGGUUAUCCGCUCAAGAAGAUCGGAAGAGCACACGU
B11: target 1 MT 5'PFS UAA 3'PFS UUC (mixed)
RNA 1: CACCCGUGCAAAAAUGCAGGGGUCUAAAACUGAGCGGAUAACCUCUCUAUGG
RNA 2: GGGAAUGGAUCCACAUCUACGAAUUCUAACCAUAGAGAGGUUAUCCGCUCAUUCAGAUCGGAAGAGCACACGU
B12: target 1 MT 5'PFS UGC 3'PFS UCA (mixed)
RNA 1: CACCCGUGCAAAAAUGCAGGGGUCUAAAACUGAGCGGAUAACCUCUCUAUGG
RNA 2: GGGAAUGGAUCCACAUCUACGAAUUCUGCCCAUAGAGAGGUUAUCCGCUCAUCAAGAUCGGAAGAGCACACGU
B13: target 1 MT 5'PFS AAA 3'PFS CGA (mixed)
RNA 1: CACCCGUGCAAAAAUGCAGGGGUCUAAAACUGAGCGGAUAACCUCUCUAUGG
RNA 2: GGGAAUGGAUCCACAUCUACGAAUUCAAACCAUAGAGAGGUUAUCCGCUCACGAAGAUCGGAAGAGCACACGU
B14: target 1 MT 5'PFS UUA 3'PFS CAG (mixed)
RNA 1: CACCCGUGCAAAAAUGCAGGGGUCUAAAACUGAGCGGAUAACCUCUCUAUGG
RNA 2: GGGAAUGGAUCCACAUCUACGAAUUCUUACCAUAGAGAGGUUAUCCGCUCACAGAGAUCGGAAGAGCACACGU
B15: target 1 MT 5'PFS GAG 3'PFS UGU (mixed)
RNA 1: CACCCGUGCAAAAAUGCAGGGGUCUAAAACUGAGCGGAUAACCUCUCUAUGG
RNA 2: GGGAAUGGAUCCACAUCUACGAAUUCGAGCCAUAGAGAGGUUAUCCGCUCAUGUAGAUCGGAAGAGCACACGU
B16: target 1 MT 5'PFS UCG 3'PFS AUA (mixed)
RNA 1: CACCCGUGCAAAAAUGCAGGGGUCUAAAACUGAGCGGAUAACCUCUCUAUGG
RNA 2: GGGAAUGGAUCCACAUCUACGAAUUCUCGCCAUAGAGAGGUUAUCCGCUCAAUAAGAUCGGAAGAGCACACGU
B17: target 1 MT 5'PFS GUU 3'PFS AGC (mixed)
RNA 1: CACCCGUGCAAAAAUGCAGGGGUCUAAAACUGAGCGGAUAACCUCUCUAUGG
RNA 2: GGGAAUGGAUCCACAUCUACGAAUUCGUUCCAUAGAGAGGUUAUCCGCUCAAGCAGAUCGGAAGAGCACACGU
B18: target 1 MT 5'PFS UGU 3'PFS CAU (mixed)
RNA 1: CACCCGUGCAAAAAUGCAGGGGUCUAAAACUGAGCGGAUAACCUCUCUAUGG
RNA 2: GGGAAUGGAUCCACAUCUACGAAUUCUGUCCAUAGAGAGGUUAUCCGCUCACAUAGAUCGGAAGAGCACACGU
B19: target 1 MT 5'PFS GUU 3'PFS AGU (mixed)
RNA 1: CACCCGUGCAAAAAUGCAGGGGUCUAAAACUGAGCGGAUAACCUCUCUAUGG
RNA 2: GGGAAUGGAUCCACAUCUACGAAUUCGUUCCAUAGAGAGGUUAUCCGCUCAAGUAGAUCGGAAGAGCACACGU
B20: target 1 MT 5'PFS CUG 3'PFS ACA (mixed)
RNA 1: CACCCGUGCAAAAAUGCAGGGGUCUAAAACUGAGCGGAUAACCUCUCUAUGG
RNA 2: GGGAAUGGAUCCACAUCUACGAAUUCCUGCCAUAGAGAGGUUAUCCGCUCAACAAGAUCGGAAGAGCACACGU
B21: target 1 MT 5'PFS CCC 3'PFS UGC (mixed)
RNA 1: CACCCGUGCAAAAAUGCAGGGGUCUAAAACUGAGCGGAUAACCUCUCUAUGG
RNA 2: GGGAAUGGAUCCACAUCUACGAAUUCCCCCCAUAGAGAGGUUAUCCGCUCAUGCAGAUCGGAAGAGCACACGU
B22: target 1 MT 5'PFS UGC 3'PFS UCG (mixed)
RNA 1: CACCCGUGCAAAAAUGCAGGGGUCUAAAACUGAGCGGAUAACCUCUCUAUGG
RNA 2: GGGAAUGGAUCCACAUCUACGAAUUCUGCCCAUAGAGAGGUUAUCCGCUCAUCGAGAUCGGAAGAGCACACGU
B23: target 1 MT 5'PFS AAA 3'PFS CGU (mixed)
RNA 1: CACCCGUGCAAAAAUGCAGGGGUCUAAAACUGAGCGGAUAACCUCUCUAUGG
RNA 2: GGGAAUGGAUCCACAUCUACGAAUUCAAACCAUAGAGAGGUUAUCCGCUCACGUAGAUCGGAAGAGCACACGU
B24: target 1 MT 5'PFS UGC 3'PFS UCC (mixed)
RNA 1: CACCCGUGCAAAAAUGCAGGGGUCUAAAACUGAGCGGAUAACCUCUCUAUGG
RNA 2: GGGAAUGGAUCCACAUCUACGAAUUCUGCCCAUAGAGAGGUUAUCCGCUCAUCCAGAUCGGAAGAGCACACGU
B25: target 1 MT 5'PFS GUU 3'PFS GGG (mixed)
RNA 1: CACCCGUGCAAAAAUGCAGGGGUCUAAAACUGAGCGGAUAACCUCUCUAUGG
RNA 2: GGGAAUGGAUCCACAUCUACGAAUUCGUUCCAUAGAGAGGUUAUCCGCUCAGGGAGAUCGGAAGAGCACACGU
B26: target 1 C2U,U11G (mixed)
RNA 1: CACCCGUGCAAAAAUGCAGGGGUCUAAAACUGAGCGGAUAACCUCUCUAUGG
RNA 2: GGGAAUGGAUCCACAUCUACGAAUUCGUACCAUAGAGAGGGUAUCCGCUUACCGAGAUCGGAAGAGCACACGU
B27: target 1 MT 5'PFS CUG 3'PFS ACG (mixed)
RNA 1: CACCCGUGCAAAAAUGCAGGGGUCUAAAACUGAGCGGAUAACCUCUCUAUGG
RNA 2: GGGAAUGGAUCCACAUCUACGAAUUCCUGCCAUAGAGAGGUUAUCCGCUCAACGAGAUCGGAAGAGCACACGU

This series concerns the target T1, EsCas13d, nuclease-dead (Eubacterium siraeum, UniProt B0MS50, R295A;H300A;R849A;H854A).
T1 sequence: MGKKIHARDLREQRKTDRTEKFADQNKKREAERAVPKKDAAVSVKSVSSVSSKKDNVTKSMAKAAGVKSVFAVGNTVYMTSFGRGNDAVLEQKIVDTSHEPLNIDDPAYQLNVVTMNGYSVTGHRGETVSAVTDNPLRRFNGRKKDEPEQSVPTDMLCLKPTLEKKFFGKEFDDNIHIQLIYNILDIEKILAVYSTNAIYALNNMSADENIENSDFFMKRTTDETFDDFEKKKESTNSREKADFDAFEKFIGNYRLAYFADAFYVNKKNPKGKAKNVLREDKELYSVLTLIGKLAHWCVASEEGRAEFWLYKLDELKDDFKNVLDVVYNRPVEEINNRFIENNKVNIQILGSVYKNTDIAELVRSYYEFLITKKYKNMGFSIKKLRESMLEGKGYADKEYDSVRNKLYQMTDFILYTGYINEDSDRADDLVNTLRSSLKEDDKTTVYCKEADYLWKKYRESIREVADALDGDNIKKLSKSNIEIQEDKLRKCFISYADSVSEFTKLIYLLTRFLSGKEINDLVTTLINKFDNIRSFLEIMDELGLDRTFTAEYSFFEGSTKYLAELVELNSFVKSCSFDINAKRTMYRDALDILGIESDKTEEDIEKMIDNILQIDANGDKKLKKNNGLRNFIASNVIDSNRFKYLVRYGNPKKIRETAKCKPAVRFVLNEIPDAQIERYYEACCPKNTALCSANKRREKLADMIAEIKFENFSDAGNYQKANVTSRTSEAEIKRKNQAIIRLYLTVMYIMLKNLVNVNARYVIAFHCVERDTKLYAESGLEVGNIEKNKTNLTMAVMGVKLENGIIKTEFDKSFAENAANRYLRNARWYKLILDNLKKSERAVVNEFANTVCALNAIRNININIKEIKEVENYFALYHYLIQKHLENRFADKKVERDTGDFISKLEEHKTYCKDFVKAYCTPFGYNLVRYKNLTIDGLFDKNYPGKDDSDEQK
Put plainly: crRNA (strand 1, pre-loaded); Mg2+; 40 mM Tris-HCl pH 7.5, 150 mM NaCl, 6 mM MgCl2, 1 mM DTT, 0.1% Tween-20, 0.2 mg/ml BSA; 25 C; 10 min per concentration, then washed. The following applies: tags: His6-TwinStrep-SUMO cleaved; N-terminal SNAP kept (SNAP-Surface 488); label: 3' end held by stalled T7 RNA polymerase.
The Kd is a measure of binding affinity in units of concentration. Low values mean higher affinity, high ones lower affinity. The molecule B1 returned a Kd of 49 ± 21 nM.

B2: the Kd amounted to 28.5 ± 6.5 nM.

As for B3, binding was characterised by a dissociation constant (Kd) of 66.5 ± 11.5 nM.

On to B4, for which the Kd came to 17.9 ± 0.9 nM.

B5 gave a Kd of 49 ± 14 nM.

For the molecule B6, the Kd stood at 16.8 ± 2.95 nM.

In turn, B7 came in with an equilibrium dissociation constant (Kd) of 27.5 ± 8 nM.

In turn, B8 yielded a Kd of 56 ± 17 nM.

For B9, the Kd was determined as 6.1 ± 1.45 nM.

B10 gave a Kd of 27.4 ± 5.25 nM.

In turn, B11 displayed a Kd of 22.9 ± 4.25 nM.

In turn, B12 returned a Kd of 11.5 ± 5.3 nM.

B13 displayed a Kd of 30 ± 14.5 nM.

In the case of B14, the Kd stood at 49.5 ± 20 nM.

In turn, B15 showed a Kd of 64.5 ± 30.5 nM.

As to B16, the Kd was found to be 37.5 ± 10.5 nM.

B17 registered a dissociation constant (Kd) of 15.6 ± 3.35 nM. Compared with the last molecule, the Kd is about 2.4-fold lower.

In turn, B18 registered a Kd of roughly 52 nM.

Take B19: the Kd was found to be 21.7 ± 3.85 nM.

B20 returned a Kd of 8.25 ± 2.25 nM. This Kd lies about 2.6-fold lower than the previous one.

In turn, B21 showed a Kd of 8.55 ± 3.25 nM.

The molecule B22 yielded a Kd of 12.1 ± 2.7 nM.

Regarding B23, binding was put at a Kd of 35 ± 16 nM.

Take B24: binding was put at a Kd of 30 ± 10.5 nM.

As for B25, the Kd was determined as 81 ± 29 nM.

Molecule B26 displayed a Kd of 18.4 ± 1 nM.

In turn, B27 registered a Kd of 6.85 ± 1.6 nM.

For the origin of these results see publication PMC10786891, “Massively parallel profiling of RNA-targeting CRISPR-Cas13d”.
